In assay [1] the target is glutathione-S-transferase-BIR2 fusion protein (GST-BIR2) (human) (UniProt P98170). The assay is described as follows: fluorescence polarization; 400 nM rhodamine-SMAC, GST-BIR2 0.05 to 20 µM. In general terms: Polarisation of emitted light reports the rotation of a fluorescent probe.
The next assay deals with GST-BIR3RING (human) (UniProt P98170). Description: fluorescence polarization; 400 nM rhodamine-SMAC, GST-BIR3RING 0.02 to 6 µM.
The target of assay [2] is T1, GST-XIAP (human, UniProt P98170 1-497). Description: cell-based or functional assay.
In another assay the target is full length XIAP (human, UniProt P98170 1-497). The assay is described as follows: cell-based or functional assay.
In assay [3] the target is T1, GST-XIAP. Description: cell-based or functional assay. This is another data set of the same source.

Square brackets hold non-standard residues; d marks the D form. Ends that are not written are not given here. * marks the point of attachment. Phe(4-Cl) = N[C@@H](Cc1ccc(Cl)cc1)C(=O)O; 2Nal = N[C@@H](Cc1ccc2ccccc2c1)C(=O)O; d2Nal = N[C@H](Cc1ccc2ccccc2c1)C(=O)O; Fmoc = O=C(OCC1c2ccccc2-c2ccccc21)*; 2Thi = N[C@@H](Cc1cccs1)C(=O)O; Cha = N[C@@H](CC1CCCCC1)C(=O)O; d2Thi = N[C@H](Cc1cccs1)C(=O)O; dCha = N[C@H](CC1CCCCC1)C(=O)O

The text below walks through data of patent publication US20110183358A1 (published 2011).

T1 sequence (P98170 whole entry): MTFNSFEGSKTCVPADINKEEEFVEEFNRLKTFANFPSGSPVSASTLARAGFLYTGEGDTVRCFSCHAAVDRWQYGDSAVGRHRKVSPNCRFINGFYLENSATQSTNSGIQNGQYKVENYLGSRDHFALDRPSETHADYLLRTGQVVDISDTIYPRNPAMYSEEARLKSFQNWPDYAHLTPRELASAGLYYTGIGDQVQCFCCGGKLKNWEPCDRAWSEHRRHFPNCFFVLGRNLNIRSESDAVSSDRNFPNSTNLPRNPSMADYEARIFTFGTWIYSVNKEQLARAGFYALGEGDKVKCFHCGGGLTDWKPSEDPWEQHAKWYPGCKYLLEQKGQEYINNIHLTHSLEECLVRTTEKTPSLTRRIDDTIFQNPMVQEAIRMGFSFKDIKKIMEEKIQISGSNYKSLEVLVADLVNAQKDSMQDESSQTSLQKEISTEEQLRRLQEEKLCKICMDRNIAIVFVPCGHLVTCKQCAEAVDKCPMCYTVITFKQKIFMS
Sequence of full length XIAP (P98170 whole entry): as above
Sequence of glutathione-S-transferase-BIR2 fusion protein (GST-BIR2) (human) (P98170 124-240): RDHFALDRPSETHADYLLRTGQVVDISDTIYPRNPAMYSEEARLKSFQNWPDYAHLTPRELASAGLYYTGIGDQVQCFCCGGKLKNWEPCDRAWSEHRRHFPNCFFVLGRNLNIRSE
Sequence of GST-BIR3RING (human) (P98170 243-497): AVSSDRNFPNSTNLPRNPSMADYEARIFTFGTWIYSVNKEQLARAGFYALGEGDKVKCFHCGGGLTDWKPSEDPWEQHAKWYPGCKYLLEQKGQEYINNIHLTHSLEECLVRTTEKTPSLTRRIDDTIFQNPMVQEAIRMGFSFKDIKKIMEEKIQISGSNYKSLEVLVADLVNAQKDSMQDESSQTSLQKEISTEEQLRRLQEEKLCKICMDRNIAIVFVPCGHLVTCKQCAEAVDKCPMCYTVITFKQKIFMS

For the molecule “rhodamine labeled SMAC (rhodamine-SMAC) (peptide)”, the values for the Kd (in assay [1]; with GST-BIR3RING (human)) were 20 µM and 0.28 µM, respectively.

B1: 1352-66 (peptide)
peptide: [2Nal][dCha]W[dW]
Regarding B1, in the assay with GST-XIAP [2], the “ratio of Vmax for hydrolysis of Ac-DEVD-AFC in the presence and absence of the species” value (“ratio of Vmax” for short) is 2.4 ratio.

B2: TPI 792-35 (peptide)
peptide: [2Thi][2Nal][dK](Fmoc)K(Fmoc)
Consider B2, for which, in the assay with full length XIAP, the “EC50 (amount of compound necessary to restore caspase-3 activity to 50% of Vmax)” value stood at 51 µM and the “Relative Potency (against SMAC AVPI tetrapeptide)” value was found to be 2.5 fold.

B3: 1352-6 (peptide)
peptide: A[dW]W[2Thi]
Turning to B3, the “ratio of Vmax” value with GST-XIAP [2] amounted to 2.4 ratio.

B4: TPI 792-33 (peptide)
peptide: [2Thi][2Nal][Phe(4-Cl)]K(Fmoc)
Take B4: in the assay with full length XIAP, the “EC50 (amount of compound necessary to restore caspase-3 activity to 50% of Vmax)” value was determined as 24 µM and the “Relative Potency (against SMAC AVPI tetrapeptide)” value is 5.2 fold.

B5: 1332/1352-1 (peptide)
peptide: AWW[2Thi]
modifications: not fully specified
B5: the “ratio of Vmax” value in the assay with GST-XIAP [2] was determined as 2.4 ratio.

B6: 1332-41 (peptide)
peptide: [Cha][d2Nal]W[2Thi]
On to B6, for which the “ratio of Vmax” value in the assay with GST-XIAP [2] worked out at 2.4 ratio.

B7: 1332/1352-47 (peptide)
peptide: A[dW]W[2Thi]
Turning to B7, the “ratio of Vmax” value with GST-XIAP [2] came to 2.4 ratio.

B8: SMAC peptide (H-Ala-Val-Pro-Ile-Ala-Gln-Lys-NH2) (peptide)
peptide: H-AVPIAQK-NH2
Turning to B8, the “Vmax(mix + casp3 + XIAP)/Vmax(casp3 + XIAP)” value with GST-XIAP [3] turned out to be 3.8 ratio.

B9: 1352-72 (peptide)
peptide: [2Nal][d2Thi][dF][dW]
In the case of B9, in the assay with GST-XIAP [2], the “ratio of Vmax” value came out at 2.4 ratio.

The term Kd denotes the equilibrium constant for the complex coming apart. The low end stands for tighter binding, the high end for weaker binding.
